B1: RNA-binding protein FUS (Homo sapiens), P35637 (parent)
chain: MASNDYTQQATQSYGAYPTQPGQGYSQQSSQPYGQQSYSGYSQSTDTSGYGQSSYSSYGQSQNTGYGTQSTPQGYGSTGGYGSSQSSQSSYGQQSSYPGYGQQPAPSSTSGSYGSSSQSSSYGQPQSGSYSQQPSYGGQQQSYGQQQSYNPPQGYGQQNQYNSSSGGGGGGGGGGNYGQDQSSMSSGGGSGGGYGNQDQSGGGGSGGYGQQDRGGRGRGGSGGGGGGGGGGYNRSSGGYEPRGRGGGRGGRGGMGGSDRGGFNKFGGPRDQGSRHDSEQDNSDNNTIFVQGLGENVTIESVADYFKQIGIIKTNKKTGQPMINLYTDRETGKLKGEATVSFDDPPSAKAAIDWFDGKEFSGNPIKVSFATRRADFNRGGGNGRGGRGRGGPMGRGGYGGGGSGGGGRGGFPSGGGGGGGQQRAGDWKCPNPTCENMNFSWRNECNQCKAPKPDGPGGGPGGSHMGGNYGDDRRGGRGGYDRGGYRGRGGDRGGFRGGRGGGDRGGFGPGKMDSRGEHRQDRRERPY

Variants of: B1
Details: with TNPO1, Q92973-2
Chain of TNPO1, Q92973-2 (Q92973 9-898): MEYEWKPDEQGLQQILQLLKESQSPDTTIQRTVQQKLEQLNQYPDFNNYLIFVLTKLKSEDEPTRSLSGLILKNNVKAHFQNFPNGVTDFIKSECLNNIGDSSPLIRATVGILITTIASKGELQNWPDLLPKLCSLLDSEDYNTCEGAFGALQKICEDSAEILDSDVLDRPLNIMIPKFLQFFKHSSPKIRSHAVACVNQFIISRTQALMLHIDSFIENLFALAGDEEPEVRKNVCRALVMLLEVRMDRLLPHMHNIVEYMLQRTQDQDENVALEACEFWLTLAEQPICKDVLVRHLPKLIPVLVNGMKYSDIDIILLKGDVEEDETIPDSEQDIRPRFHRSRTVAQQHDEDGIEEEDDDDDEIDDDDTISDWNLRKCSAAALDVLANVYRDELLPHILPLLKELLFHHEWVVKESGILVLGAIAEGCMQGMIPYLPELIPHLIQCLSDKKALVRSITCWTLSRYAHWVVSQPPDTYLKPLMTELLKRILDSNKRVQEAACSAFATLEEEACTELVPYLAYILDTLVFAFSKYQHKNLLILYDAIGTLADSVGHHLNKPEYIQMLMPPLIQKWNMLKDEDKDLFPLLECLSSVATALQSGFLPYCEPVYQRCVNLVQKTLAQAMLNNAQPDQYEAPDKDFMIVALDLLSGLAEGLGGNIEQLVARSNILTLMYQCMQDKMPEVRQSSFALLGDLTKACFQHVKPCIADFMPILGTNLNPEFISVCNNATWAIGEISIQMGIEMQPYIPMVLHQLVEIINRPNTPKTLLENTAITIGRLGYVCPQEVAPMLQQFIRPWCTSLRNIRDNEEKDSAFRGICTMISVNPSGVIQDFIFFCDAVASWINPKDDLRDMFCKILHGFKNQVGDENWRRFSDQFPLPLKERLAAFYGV

| Variant | effect of a mutation on the interaction |
| --- | --- |
| R522A | decreasing interaction strength |
| R514A;R518A;R521A;R522A | disrupting interaction strength |
| R514A;R518A | decreasing interaction strength |
| P508A;G509A;K510A;M511A | decreasing interaction strength |
| H517Q | decreasing interaction strength |
| R521A;R522A | decreasing interaction strength |
| R518A | decreasing interaction strength |
| R521C | decreasing interaction strength |

Next, values leading:

| effect of a mutation on the interaction | Variant |
| --- | --- |
| decreasing interaction strength | P525L |
| decreasing interaction strength | P525A |
| decreasing interaction strength | R524S |
| decreasing interaction strength | Y526A |
| decreasing interaction strength | P525A;Y526A |
